Numbered stars: 1 amine (or outer) side, 2 acyl side, 3 side chain; on linkers, the order of the positions; unused ones are H or OH. Bridge positions count the residues as written; N and C are the ends. Square brackets hold non-standard residues; d marks the D form. * marks the point of attachment. Ala(piperidin-4-yl) = O=C([C@H](CC1CCN([*:3])CC1)N[*:1])[*:2]; DOTA = O=C(O)CN1CCN(CC(=O)O)CCN(CC(=O)*)CCN(CC(=O)O)CC1; 1Nal = N[C@@H](Cc1cccc2ccccc12)C(=O)O; 3Pal = N[C@@H](Cc1cccnc1)C(=O)O; 4Pal = N[C@@H](Cc1ccncc1)C(=O)O; NMeQ = CN[C@@H](CCC(N)=O)C(=O)O; Chg = N[C@H](C(=O)O)C1CCCCC1; dNle = CCCC[C@@H](N)C(=O)O; Ahx = NCCCCCC(=O)O
T1: Biotinylated human DLL3 (human, UniProt Q9NYJ7 27-492, biotinylated (site not stated))
T1 construct: also called Delta-like ligand 3; Delta Like Canonical Notch Ligand 3
T1 sequence (looked up): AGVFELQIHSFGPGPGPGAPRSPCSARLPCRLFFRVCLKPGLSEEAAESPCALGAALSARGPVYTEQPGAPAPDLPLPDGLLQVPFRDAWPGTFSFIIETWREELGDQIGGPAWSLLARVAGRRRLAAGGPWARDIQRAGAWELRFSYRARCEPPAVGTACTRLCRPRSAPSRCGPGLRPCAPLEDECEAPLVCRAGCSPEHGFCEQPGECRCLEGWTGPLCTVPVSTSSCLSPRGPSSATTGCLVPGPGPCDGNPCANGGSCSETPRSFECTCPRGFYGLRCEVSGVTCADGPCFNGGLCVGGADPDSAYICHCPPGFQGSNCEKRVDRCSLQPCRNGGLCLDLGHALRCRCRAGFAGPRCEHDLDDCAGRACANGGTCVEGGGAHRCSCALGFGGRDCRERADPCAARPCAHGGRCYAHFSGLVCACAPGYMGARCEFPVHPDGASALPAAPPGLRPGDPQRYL


The binders below were run against T1, Biotinylated human DLL3 (assay: SPR, biotin-hDLL3 on SA chip).

| Binder | Kd [nM] | binding result |
| --- | --- | --- |
| Ac-[Chg]SK(DOTA)CWLQWNCPFD-NH2 (disulfide 4-10; SMILES CC(=O)N[C@H](C(=O)N[C@@H](CO)C(=O)N[C@@H](CCCCNC(=O)CN1CCN(CC(=O)O)CCN(CC(=O)O)CCN(CC(=O)O)CC1)C(=O)N[C@H]1CSSC[C@@H](C(=O)N2CCC[C@H]2C(=O)N[C@@H](Cc2ccccc2)C(=O)N[C@@H](CC(=O)O)C(N)=O)NC(=O)[C@H](CC(N)=O)NC(=O)[C@H](Cc2c[nH]c3ccccc23)NC(=O)[C@H](CCC(N)=O)NC(=O)[C@H](CC(C)C)NC(=O)[C@H](Cc2c[nH]c3ccccc23)NC1=O)C1CCCCC1) [Cpd #96] | 145 | – |
| Ac-[Chg]SDCWK(DOTA)QWNCPFD-NH2 (disulfide 4-10; SMILES CC(=O)N[C@H](C(=O)N[C@@H](CO)C(=O)N[C@@H](CC(=O)O)C(=O)N[C@H]1CSSC[C@@H](C(=O)N2CCC[C@H]2C(=O)N[C@@H](Cc2ccccc2)C(=O)N[C@@H](CC(=O)O)C(N)=O)NC(=O)[C@H](CC(N)=O)NC(=O)[C@H](Cc2c[nH]c3ccccc23)NC(=O)[C@H](CCC(N)=O)NC(=O)[C@H](CCCCNC(=O)CN2CCN(CC(=O)O)CCN(CC(=O)O)CCN(CC(=O)O)CC2)NC(=O)[C@H](Cc2c[nH]c3ccccc23)NC1=O)C1CCCCC1) [Cpd #98] | 93 | – |
| Ac-[Chg]SDC[1Nal]LQWNCPFD[dK](DOTA)-NH2 (disulfide 4-10) [Cpd #105] | 0.59 | – |
| Ac-[Chg][dS]DC[1Nal]LQWNCPFD[dK](DOTA)-NH2 (disulfide 4-10) [Cpd #106] | 1.2 | – |
| Ac-[dNle][dS]DC[1Nal]LQWNCPFD[dK](DOTA)-NH2 (disulfide 4-10) [Cpd #107] | 1.9 | – |
| Ac-[dA][dS]DC[1Nal]LQWNCPFD[dK](DOTA)-NH2 (disulfide 4-10) [Cpd #108] | 2.89 | – |
| Ac-[Chg]SDC[1Nal]L[Ala(piperidin-4-yl)]WNCPFD[dK](DOTA)-NH2 (disulfide 4-10) [Cpd #111] | 1.24 | – |
| Ac-[Chg]SDC[1Nal]L[3Pal]WNCPFD[dK](DOTA)-NH2 (disulfide 4-10; SMILES CC(=O)N[C@H](C(=O)N[C@@H](CO)C(=O)N[C@@H](CC(=O)O)C(=O)N[C@H]1CSSC[C@@H](C(=O)N2CCC[C@H]2C(=O)N[C@@H](Cc2ccccc2)C(=O)N[C@@H](CC(=O)O)C(=O)N[C@H](CCCCNC(=O)CN2CCN(CC(=O)O)CCN(CC(=O)O)CCN(CC(=O)O)CC2)C(N)=O)NC(=O)[C@H](CC(N)=O)NC(=O)[C@H](Cc2c[nH]c3ccccc23)NC(=O)[C@H](Cc2cccnc2)NC(=O)[C@H](CC(C)C)NC(=O)[C@H](Cc2cccc3ccccc23)NC1=O)C1CCCCC1) [Cpd #112] | 2.56 | – |
| Ac-[Chg]SDC[1Nal]L[4Pal]WNCPFD[dK](DOTA)-NH2 (disulfide 4-10; SMILES CC(=O)N[C@H](C(=O)N[C@@H](CO)C(=O)N[C@@H](CC(=O)O)C(=O)N[C@H]1CSSC[C@@H](C(=O)N2CCC[C@H]2C(=O)N[C@@H](Cc2ccccc2)C(=O)N[C@@H](CC(=O)O)C(=O)N[C@H](CCCCNC(=O)CN2CCN(CC(=O)O)CCN(CC(=O)O)CCN(CC(=O)O)CC2)C(N)=O)NC(=O)[C@H](CC(N)=O)NC(=O)[C@H](Cc2c[nH]c3ccccc23)NC(=O)[C@H](Cc2ccncc2)NC(=O)[C@H](CC(C)C)NC(=O)[C@H](Cc2cccc3ccccc23)NC1=O)C1CCCCC1) [Cpd #113] | 0.89 | – |
| Ac-SDCWLQWNCPFD-NH2 (disulfide 3-9) [Cpd #5] | – | no binding |
| {DOTA-Ahx}-SDCWL[NMeQ]WNCPFD-NH2 (disulfide 3-9) [Cpd #93] | – | no binding |
| Ac-[Chg]SDCK(DOTA)LQWNCPFD-NH2 (disulfide 4-10; SMILES CC(=O)N[C@H](C(=O)N[C@@H](CO)C(=O)N[C@@H](CC(=O)O)C(=O)N[C@H]1CSSC[C@@H](C(=O)N2CCC[C@H]2C(=O)N[C@@H](Cc2ccccc2)C(=O)N[C@@H](CC(=O)O)C(N)=O)NC(=O)[C@H](CC(N)=O)NC(=O)[C@H](Cc2c[nH]c3ccccc23)NC(=O)[C@H](CCC(N)=O)NC(=O)[C@H](CC(C)C)NC(=O)[C@H](CCCCNC(=O)CN2CCN(CC(=O)O)CCN(CC(=O)O)CCN(CC(=O)O)CC2)NC1=O)C1CCCCC1) [Cpd #97] | – | no binding |
| Ac-[Chg]SDCWLQK(DOTA)NCPFD-NH2 (disulfide 4-10; SMILES CC(=O)N[C@H](C(=O)N[C@@H](CO)C(=O)N[C@@H](CC(=O)O)C(=O)N[C@H]1CSSC[C@@H](C(=O)N2CCC[C@H]2C(=O)N[C@@H](Cc2ccccc2)C(=O)N[C@@H](CC(=O)O)C(N)=O)NC(=O)[C@H](CC(N)=O)NC(=O)[C@H](CCCCNC(=O)CN2CCN(CC(=O)O)CCN(CC(=O)O)CCN(CC(=O)O)CC2)NC(=O)[C@H](CCC(N)=O)NC(=O)[C@H](CC(C)C)NC(=O)[C@H](Cc2c[nH]c3ccccc23)NC1=O)C1CCCCC1) [Cpd #99] | – | no binding |
